Results published in US20230416363A1 (KADMON, published 2023).

What was measured:
hPD-1-Fc [1] = biological target: T1, hPD-1-Fc (human, UniProt Q15116 25-167); test: SPR, Exp. 1
T1 construct: domain: IgV domain; also called human PD-1-Fc; not shown: human IgG1 Fc

hPD-1-his [2] = biological target: T2, hPD-1-his (human, UniProt Q15116 25-167); test: SPR, Exp. 1
T2 construct: domain: IgV domain; monomer in solution; biotin-labelled where captured by streptavidin; also called biotin-hPD-1-his

hPD-1-Fc [3] = biological target: T1, hPD-1-Fc; test: SPR, Exp. 2
hPD-1-his [4] = biological target: T2, hPD-1-his; test: SPR, Exp. 2
hPD-1-Fc [5] = biological target: T1, hPD-1-Fc; test: SPR, Exp. 3
hPD-1-his [6] = biological target: T2, hPD-1-his; test: SPR, Exp. 3
hPD-1-his [7] = biological target: T2, hPD-1-his; test: SPR, Exp. 4
[8] = biological target: T3, hPD1 (soluble, ELISA of Example 20) (human, UniProt Q15116 25-167, limits assumed); test: ELISA, hPD1
[9] = biological target: T4, mPD1 (soluble, ELISA of Examples 20 and 24) (mouse, UniProt Q02242 25-167, limits assumed); test: ELISA, mPD1
T4 construct: also called Biotin-mPD1
T4 sequence (looked up): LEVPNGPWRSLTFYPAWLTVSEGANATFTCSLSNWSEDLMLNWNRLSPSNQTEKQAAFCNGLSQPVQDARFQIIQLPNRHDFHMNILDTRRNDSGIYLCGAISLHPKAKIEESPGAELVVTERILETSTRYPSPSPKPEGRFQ

mPD-1-Fc = biological target: T5, mPD-1-Fc (mouse; human, UniProt Q02242 25-167, limits assumed); test: SPR Biacore
T5 construct: domain: IgV domain; not shown: human IgG1 Fc
T5 sequence (looked up): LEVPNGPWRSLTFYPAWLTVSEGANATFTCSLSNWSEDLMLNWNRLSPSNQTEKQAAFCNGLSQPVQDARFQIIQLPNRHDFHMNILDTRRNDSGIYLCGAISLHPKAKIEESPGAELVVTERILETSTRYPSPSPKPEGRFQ

mPD-1-his = biological target: T6, mPD-1-his (mouse, UniProt Q02242 25-167, limits assumed); test: SPR Biacore
T6 construct: domain: IgV domain
T6 sequence: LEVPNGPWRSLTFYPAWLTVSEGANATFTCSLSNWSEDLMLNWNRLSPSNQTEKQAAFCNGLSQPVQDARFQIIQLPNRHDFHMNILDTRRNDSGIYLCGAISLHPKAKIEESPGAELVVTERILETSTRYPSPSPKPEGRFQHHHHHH

[10] = biological target: T7, human PD-1 expressed on cells (human, UniProt Q15116 25-288); test: cell-based or functional assay
hPD-1-Fc [11] = biological target: T1, hPD-1-Fc; test: SPR Biacore, hPD1-Fc
hPD-1-Fc [12] = biological target: T1, hPD-1-Fc; test: ELISA, PD-1-Fc coated
hPD-1-Fc [13] = biological target: T1, hPD-1-Fc; test: ELISA, hPD-1-Fc coated
[14] = biological target: T7, human PD-1 expressed on cells; test: cell-based or functional assay; remark: listed apart in the source
[15] = biological target: T7, human PD-1 expressed on cells; test: cell-based or functional assay; remark: listed apart in the source
hPD-1-his [16] = biological target: T2, hPD-1-his; test: ELISA, PD-1-his on anti-his
hPD-1-his [17] = biological target: T2, hPD-1-his; test: ELISA, PD-1-his on anti-his; remark: listed apart in the source
hPD-1-Fc [18] = biological target: T1, hPD-1-Fc; test: SPR, range over experiments
hPD-1-Fc [19] = biological target: T1, hPD-1-Fc; test: blocking ELISA, PD-1 to PD-L1
hPD-1-Fc [20] = biological target: T1, hPD-1-Fc; test: blocking ELISA, PD-1 to PD-L2
[21] = biological target: T3, hPD1 (soluble, ELISA of Example 20); test: blocking ELISA, hPD1 to hPDL1
[22] = biological target: T7, human PD-1 expressed on cells; test: flow cytometry, hPD1-293 cells
[23] = biological target: T7, human PD-1 expressed on cells; test: flow cytometry, hPD1-293 cells; remark: listed apart in the source
[24] = biological target: T7, human PD-1 expressed on cells; test: cell-based or functional assay; remark: listed apart in the source
hPD-1-his [25] = biological target: T2, hPD-1-his; test: ELISA, PD-1-his on streptavidin
hPD-1-Fc [26] = biological target: T1, hPD-1-Fc; test: blocking ELISA, hPD-1 to hPD-L1; set-up: unit not given here
[27] = biological target: T7, human PD-1 expressed on cells; test: flow cytometry, hPD-1-293 cells
[28] = biological target: T7, human PD-1 expressed on cells; test: flow cytometry, hPD1-Jurkat cells
[29] = biological target: T7, human PD-1 expressed on cells; test: flow cytometry, hPD1-Jurkat cells; remark: listed apart in the source
[30] = biological target: T7, human PD-1 expressed on cells; test: flow cytometry, hPD-1-Jurkat cells
hPD-1-Fc [31] = biological target: T1, hPD-1-Fc; test: SPR Biacore T200, PD-1-Fc immobilised
hPD-1-his [32] = biological target: T2, hPD-1-his; test: SPR Biacore T200, PD-1-his immobilised
hPD-1-his [33] = biological target: T2, hPD-1-his; test: ELISA, biotin-PD-1-his on streptavidin
[34] = biological target: T7, human PD-1 expressed on cells; test: flow cytometry, activated PBMC donor FA
[35] = biological target: T7, human PD-1 expressed on cells; test: flow cytometry, activated PBMC donor two
[36] = biological target: T7, human PD-1 expressed on cells; test: flow cytometry, SEB-activated PBMC donor
[37] = biological target: T7, human PD-1 expressed on cells; test: flow cytometry, SEB-activated PBMC donor two

T2 sequence (Q15116 other isoform, or with tags, fused parts or gaps limits assumed): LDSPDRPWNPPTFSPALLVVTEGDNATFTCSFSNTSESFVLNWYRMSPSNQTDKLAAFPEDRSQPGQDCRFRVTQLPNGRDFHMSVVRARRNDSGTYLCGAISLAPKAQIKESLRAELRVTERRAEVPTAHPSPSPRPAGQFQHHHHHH
T7 sequence (Q15116 25-288): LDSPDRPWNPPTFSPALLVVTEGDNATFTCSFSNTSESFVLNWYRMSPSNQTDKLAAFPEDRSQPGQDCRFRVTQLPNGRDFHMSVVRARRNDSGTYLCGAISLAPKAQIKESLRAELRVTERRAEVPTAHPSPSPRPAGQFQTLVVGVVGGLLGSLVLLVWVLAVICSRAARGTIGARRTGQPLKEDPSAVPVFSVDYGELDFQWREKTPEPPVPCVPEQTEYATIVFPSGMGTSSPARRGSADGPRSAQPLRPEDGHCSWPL
T1 sequence (Q15116 25-167 limits assumed): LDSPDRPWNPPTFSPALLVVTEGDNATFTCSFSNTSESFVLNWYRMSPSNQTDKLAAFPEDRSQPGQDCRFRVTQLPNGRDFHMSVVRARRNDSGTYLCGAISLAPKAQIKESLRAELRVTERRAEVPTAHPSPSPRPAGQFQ
T3 sequence (Q15116 25-167 limits assumed): as above

B1: 38B2 (antibody, V domains shown)
VH: EVQLLESGGGLVQPGGSLRLSCAASGFTFSSYWMSWVRQAPGKGLEWVSAISGSGGSTYYADSVKGRFTISRDNSKNTLYLQMNSLRAEDTAVYYCASSPLQWVDVWGQGTTVTVSS
VL: DIQMTQSPSSLSASVGDRVTITCRASESISSWLAWYQQKPGKAPKLLIYDASSLESGVPSRFSGSGSGTDFTLTISSLQPEDFATYYCQQGDSFPFTFGQGTKLEIK
notes: 24H9 derivative, IgG; also called 780_54; hPD1 Ab (38B2)
Kd (hPD-1-Fc [1]): < 0.033 nM
Kd (hPD-1-his [2]): 0.946 nM
Kd (hPD-1-Fc [3]): < 0.01 nM
Kd (hPD-1-his [4]): 0.423 nM
Kd (hPD-1-Fc [5]): < 0.01 nM
Kd (hPD-1-his [6]): 0.932 nM
Kd (hPD-1-his [7]): 0.205 nM
EC50 [8]: 0.125 nM
binding result [9]: no binding
binding result (mPD-1-Fc): no binding
binding result (mPD-1-his): no binding
EC50 averaged from two experiments, Promega blockade bioassay [10]: 0.154 µg/mL
IC50, Promega blockade bioassay [10]: 0.725 nM
Kd (hPD-1-Fc [11]): 0.147 nM
koff (hPD-1-Fc [11]): 3.26e-05 s⁻¹
kon (hPD-1-Fc [11]): 221000 M⁻¹ s⁻¹
EC50 (hPD-1-Fc [12]): 0.096 nM
OD at 10 nM (hPD-1-Fc [13]): 1.05 OD
EC50, Promega blockade bioassay [14]: 0.154 µg/mL
Fold induction [14]: 6.54 fold
EC50, Promega blockade bioassay, Exp. 1 [15]: 0.189 µg/mL
EC50, Promega blockade bioassay, Exp. 2 [15]: 0.135 µg/mL
Fold induction at 12 µg/ml, Exp. 1 [15]: 7.61 fold
Fold induction at 12 µg/ml, Exp. 2 [15]: 8.31 fold
OD at 10 nM (hPD-1-his [16]): 0.662 OD
EC50 (hPD-1-his [17]): 0.06 nM
Kd (hPD-1-Fc [18]): 0.01 to 0.03 nM
IC50 (hPD-1-Fc [19]): 2.37 nM
Inhibition % at 50 nM (hPD-1-Fc [19]): 93.9%
Inhibition, % at 5.56 nM (hPD-1-Fc [19]): 92.7%
IC50 (hPD-1-Fc [20]): 1.93 nM
Inhibition, % at 3.7 nM (hPD-1-Fc [20]): 93.9%
Inhibition, % at 100 nM (hPD-1-Fc [20]): 95.1%
IC50 [21]: 4.25 nM
EC50 [22]: 0.12 nM
MFI at 5 nM [22]: 118 MFI
EC50 [23]: 0.267 nM
EC50 (read off the curve) [24]: ~0.5 nM
OD at 10 nM (hPD-1-his [25]): 1.04 OD
Inhibition at 50 nM (hPD-1-Fc [26]): 93.4
MFI, 5 nM [27]: 297 MFI
EC50 [28]: 0.16 nM
MFI at 5 nM [28]: 91 MFI
EC50 [29]: 0.137 nM
MFI, 5 nM [30]: 60.8 MFI
Kd (hPD-1-Fc [31]): 0.249 nM
Kd (hPD-1-his [32]): 0.318 nM
EC50 (hPD-1-his [33]): 0.081 nM
EC50 [34]: 0.15 nM
MFI at 25 nM [34]: 16.6 MFI
EC50 [35]: 0.1 nM
MFI at 25 nM [35]: 16.7 MFI
MFI, 5 nM [36]: 64.2 MFI
MFI, 5 nM [37]: 55.3 MFI
